Here are results for four substances from PMC4817942.

What is called EC50 is the concentration needed to bring the measured effect to its halfway point. A high value points to a need for much substance.

For assay [1], the target named is FcγRIIB (CD32B) (UniProt P31994). As to the kind of experiment: SPR; Biacore analysis; who was immobilised, buffer and temperature not given for this experiment. In general terms: SPR reads the build-up and loss of mass on a sensor chip optically.
For assay [2], the target named is FcγRIII (CD16A) (UniProt P08637). The assay is described as above.
Sequence of FcγRIII (CD16A) (P08637 17-254): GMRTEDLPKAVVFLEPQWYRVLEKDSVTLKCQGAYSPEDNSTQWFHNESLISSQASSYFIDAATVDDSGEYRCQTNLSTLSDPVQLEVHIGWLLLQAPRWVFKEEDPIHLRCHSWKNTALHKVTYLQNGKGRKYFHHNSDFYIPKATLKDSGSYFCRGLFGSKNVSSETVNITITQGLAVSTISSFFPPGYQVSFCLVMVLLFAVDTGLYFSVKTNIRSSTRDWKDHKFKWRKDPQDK
For assay [3], the target named is FcγRIIA (CD32A) (UniProt P12318). The assay is described as above.
Sequence of FcγRIIA (CD32A) (P12318 34-317): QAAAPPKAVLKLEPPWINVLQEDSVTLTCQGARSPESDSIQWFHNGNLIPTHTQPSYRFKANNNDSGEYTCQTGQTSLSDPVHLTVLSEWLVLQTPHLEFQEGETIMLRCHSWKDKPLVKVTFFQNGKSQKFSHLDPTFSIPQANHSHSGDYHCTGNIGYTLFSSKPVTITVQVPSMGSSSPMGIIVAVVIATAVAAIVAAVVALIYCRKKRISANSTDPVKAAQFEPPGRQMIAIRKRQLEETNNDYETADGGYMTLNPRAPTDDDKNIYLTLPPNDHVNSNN
Assay [4] has as its target FcγRI (CD64) (UniProt P12314). The assay is described as above.
The target of assay [5] is neonatal Fc receptor (FcRn) (UniProt P55899). As to the kind of experiment: SPR; Biacore analysis; FcRn data collected at pH6; who was immobilised not told.
Sequence of neonatal Fc receptor (FcRn) (P55899 whole entry, looked up, tested part not stated): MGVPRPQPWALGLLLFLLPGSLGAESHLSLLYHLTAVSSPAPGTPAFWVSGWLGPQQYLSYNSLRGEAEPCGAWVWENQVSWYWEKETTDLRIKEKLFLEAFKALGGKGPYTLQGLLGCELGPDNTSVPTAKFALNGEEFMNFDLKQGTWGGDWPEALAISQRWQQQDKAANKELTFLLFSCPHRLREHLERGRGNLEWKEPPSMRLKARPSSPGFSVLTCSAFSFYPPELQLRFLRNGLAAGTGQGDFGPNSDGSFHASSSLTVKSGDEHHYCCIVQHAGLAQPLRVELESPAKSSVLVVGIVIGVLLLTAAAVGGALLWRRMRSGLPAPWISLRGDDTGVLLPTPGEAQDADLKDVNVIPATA
Assay [6] has as its target HER2 on the cell surface (human (endogenous in SK-BR-3, HCC1954 and BT474)) (UniProt P04626).
For assay [7] the target is unchanged. Briefly: flow cytometry on cells; cells with 0.1-2,000 nmol/l Fcab for 1 hour at 4 °C in DPBS with 2% FBS; detected by anti-human IgG-phycoerythrin. For orientation: Flow cytometry measures light scatter and fluorescence of single cells or particles in a stream.
Assay [8] addresses human HER2 ECD-Fc recombinant (human) (UniProt P04626). As to the kind of experiment: SPR; BIAcore 3000; human HER2 ECD-Fc amine-coupled on a CM5 chip to 200 RU; analyte FS102 (50 µg/ml) at 20 µl/minute; HBS-P buffer; apparent KD.

Sequence of FcγRI (CD64) (P12314 16-374): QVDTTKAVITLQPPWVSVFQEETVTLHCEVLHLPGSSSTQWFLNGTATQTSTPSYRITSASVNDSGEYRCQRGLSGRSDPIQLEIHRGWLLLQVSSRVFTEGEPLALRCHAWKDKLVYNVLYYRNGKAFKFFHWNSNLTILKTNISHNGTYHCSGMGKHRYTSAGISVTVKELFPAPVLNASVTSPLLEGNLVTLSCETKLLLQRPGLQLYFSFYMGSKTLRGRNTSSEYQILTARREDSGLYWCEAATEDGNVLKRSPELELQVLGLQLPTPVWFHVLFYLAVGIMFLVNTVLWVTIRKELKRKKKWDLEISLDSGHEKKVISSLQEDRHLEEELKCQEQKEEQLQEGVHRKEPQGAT
Sequence of FcγRIIB (CD32B) (P31994 43-310): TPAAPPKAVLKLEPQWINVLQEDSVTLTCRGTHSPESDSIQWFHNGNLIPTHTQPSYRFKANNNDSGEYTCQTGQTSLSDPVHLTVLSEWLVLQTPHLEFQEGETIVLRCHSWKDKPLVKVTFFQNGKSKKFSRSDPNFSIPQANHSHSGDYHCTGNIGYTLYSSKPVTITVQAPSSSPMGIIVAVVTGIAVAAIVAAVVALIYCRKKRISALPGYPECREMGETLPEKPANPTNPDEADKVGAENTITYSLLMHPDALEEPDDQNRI

For the substance FS102 (designed binder), the Kd is 6.4 µM in assay [1]; 560 nM in assay [2]; 472 nM in assay [3]; 19 nM in assay [4]; 45 nM in assay [5]; 0.8 nM in assay [8]. For the same substance, in assay [6], the reduction of HCC1954 cell number after 5 days of incubation (proliferation assay) was 47%. Further, the reduction of SK-BR-3 cell number after 5 days of incubation (proliferation assay) in assay [6] came to 39%. The substance further registered an EC50 in assay [7] of 3.3 nM.
On to IgG1 (antibody), for which the Kd is 5 µM in assay [1]; 660 nM in assay [2]; 250 nM in assay [3]; 15 nM in assay [4]; 20 to 60 nM in assay [5].
Turning to Trastuzumab (antibody), the Kd in assay [4] came to 40 nM.
Take “WT Fcab (unmodified constant region of human IgG1) (domain or fragment)”: the Kd in assay [1] was determined as 6.2 µM; in assay [2], 500 nM; in assay [3] it was 1000 nM; in assay [4] it was 27 nM.
